We go through one molecule from patent publication US20180155712, “COMPOSITIONS AND METHODS FOR IDENTIFYING POLYNUCLEOTIDES OF INTEREST” (The Regents of the University of California, published 2018).

The data set addresses T7 RNA polymerase (Bacteriophage T7, UniProt P00573 P00573:1-883). The data set can be described thus: functional promoter recovered as cDNA by in vitro transcription and deep sequencing; relative strength not given. On the procedure:
Transcription with T7 RNA polymerase, phenol/chloroform/iso-amyl alcohol extraction, ethanol precipitation, and reverse transcription were performed as described for Examples 1 and 2, above. PCR was done of the resulting cDNA with primers that added appropriate indexed sequences for Illumina deep sequencing, as described above and herein. PCR was also done directly on the library plasmid, again adding the appropriate sequences for Illumina deep sequencing, but with a different index. The appropriately sized PCR products from the cDNA and from the plasmid library were gel purified. An equal mass amount of the two products were mixed and submitted for Illumina MiSeq deep sequencing. Approximately 5 million sequences were generated for each of the cDNA and plasmid library after separation based on the primer indices. For both cDNA and library PCR products, non-promoter sequences were trimmed, promoter sequences were separated based on the number of mutations present in each sequence, and the number of times any given sequence was present was determined. […] See, SEQ ID NOs: 10-73473 listed in the text-formatted computer readable sequence listing filed herewith, and incorporated herein by reference. […]

Chain of T7 RNA polymerase (P00573 whole entry, one chain of several): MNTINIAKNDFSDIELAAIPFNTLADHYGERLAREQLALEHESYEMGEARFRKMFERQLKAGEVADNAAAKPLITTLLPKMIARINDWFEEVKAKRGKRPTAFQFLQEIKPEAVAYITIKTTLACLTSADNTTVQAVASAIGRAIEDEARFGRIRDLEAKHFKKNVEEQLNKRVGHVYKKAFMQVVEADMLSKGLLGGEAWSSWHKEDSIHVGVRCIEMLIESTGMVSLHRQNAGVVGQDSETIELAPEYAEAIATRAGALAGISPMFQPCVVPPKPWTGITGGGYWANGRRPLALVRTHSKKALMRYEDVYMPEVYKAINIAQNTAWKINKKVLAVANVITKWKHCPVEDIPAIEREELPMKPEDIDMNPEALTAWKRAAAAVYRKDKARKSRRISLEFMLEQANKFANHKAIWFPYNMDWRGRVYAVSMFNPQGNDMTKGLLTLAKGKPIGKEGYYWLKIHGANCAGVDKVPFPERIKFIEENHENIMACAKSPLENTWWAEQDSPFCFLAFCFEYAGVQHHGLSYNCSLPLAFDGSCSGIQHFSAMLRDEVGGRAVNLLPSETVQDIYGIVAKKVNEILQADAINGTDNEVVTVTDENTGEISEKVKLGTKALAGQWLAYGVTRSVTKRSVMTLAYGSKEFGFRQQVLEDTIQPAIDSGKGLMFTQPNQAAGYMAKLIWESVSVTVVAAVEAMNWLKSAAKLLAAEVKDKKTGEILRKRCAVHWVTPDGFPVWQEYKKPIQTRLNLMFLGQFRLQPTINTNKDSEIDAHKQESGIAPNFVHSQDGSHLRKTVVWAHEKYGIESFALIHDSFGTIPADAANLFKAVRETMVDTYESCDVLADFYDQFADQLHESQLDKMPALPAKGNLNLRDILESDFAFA

B1: mutant T7 promoter SEQ ID NO: 10 (dsDNA)
DNA 1: TAATACGACTCGCTATCG
DNA 2: CGATAGCGAGTCGTATTA
In the case of B1, the binding result is on record as “binds”.
